Patent US20260000752A1 (AKSTON BIOSCIENCES, published 2026)

B1: human Fc(gamma)RIIIb (receptor)
chain: GMRTEDLPKAVVFLEPQWYSVLEKDSVTLKCQGAYSPEDNSTQWFHNENLISSQASSYFIDAATVNDSGEYRCQTNLSTLSDPVQLEVHIGWLLLQAPRWVFKEEDPIHLRCHSWKNTALHKVTYLQNGKDRKYFHHNSDFHIPKATLKDSGSYFCRGLVGSKNVSSETVNITITQGLAVSTIS
B2: recombinant human Fc(gamma)RI, biotinylated (R&D Systems) (receptor, UniProt P12314 16-288, looked up)
chain: QVDTTKAVITLQPPWVSVFQEETVTLHCEVLHLPGSSSTQWFLNGTATQTSTPSYRITSASVNDSGEYRCQRGLSGRSDPIQLEIHRGWLLLQVSSRVFTEGEPLALRCHAWKDKLVYNVLYYRNGKAFKFFHWNSNLTILKTNISHNGTYHCSGMGKHRYTSAGISVTVKELFPAPVLNASVTSPLLEGNLVTLSCETKLLLQRPGLQLYFSFYMGSKTLRGRNTSSEYQILTARREDSGLYWCEAATEDGNVLKRSPELELQVLGLQLPTP
B3: recombinant human Fc(gamma)RIIb, biotinylated (R&D Systems) (receptor)
chain: APPKAVLKLEPQWINVLQEDSVTLTCRGTHSPESDSIQWFHNGNLIPTHTQPSYRFKANNNDSGEYTCQTGQTSLSDPVHLTVLSEWLVLQTPHLEFQEGETIVLRCHSWKDKPLVKVTFFQNGKSKKFSRSDPNFSIPQANHSHSGDYHCTGNIGYTLYSSKPVTITVQAP
B4: recombinant human Fc(gamma)RIIa, biotinylated (R&D Systems) (receptor)
chain: AAPPKAVLKLEPPWINVLQEDSVTLTCQGARSPESDSIQWFHNGNLIPTHTQPSYRFKANNNDSGEYTCQTGQTSLSDPVHLTVLSEWLVLQTPHLEFQEGETIMLRCHSWKDKPLVKVTFFQNGKSQKFSHLDPTFSIPQANHSHSGDYHCTGNIGYTLFSSKPVTITVQVPSMGSSSPMGI

These binders were tested against SARS-CoV-2-RBD-hIgG-Fc fusion protein of SEQ ID NO: 19.

First: B1
Second: B2
The EC50 of the first is 350-fold higher: 11.7 µg/mL for the first, 0.0339 µg/mL for the second.

B3 and B4 are within 1.5-fold of each other in EC50: 2.05 µg/mL for the first, 2.28 µg/mL for the second.
